In patent publication US20170096492A1, “DOSAGE AND ADMINISTRATION OF ANTI-IGF-1R, ANTI-ErbB3 BISPECIFIC ANTIBODIES, USES THEREOF AND METHODS OF TREATMENT [sequence]” (Merrimack Pharmaceuticals, Inc., priority 2014, published 2017):
“Also recorded” adds a separate entry of the source.

Tests used:
[1] = tested on: BxPC-3 cell line xenografts; assay: BxPC-3 xenograft efficacy study; type: in vivo, mice
Protocol: For the efficacy studies (FIGS. 6C and 9C), nu/nu female mice were inoculated with 8×10^6 DU145 cells and 5×10^6 BxPC-3 cells, respectively. […] Tumor volume was measured weekly as described in Example 4.

[2] = tested on: BxPC-3 (KRAS wild type) pancreatic cancer cells; assay: CTG cell viability, gemcitabine or paclitaxel with IGF-1 and HRG, two-dimensional cultures; type: cell-based, human; details: IGF-1 50 nM and HRG 10 nM, 2% serum, MM-141 500 nM
Protocol: The cell viability assay (FIGS. 7A-B and 8A-B) was carried out using a CellTiter-Glo® (CTG) assay (Promega), which determines the number of viable cells in a culture based on quantitation of the ATP present. In FIGS. 7A-B, BxPC-3 cells were grown in low serum alone or with exogenous IGF-1 or HRG added (0-50 nM). […] For the cell viability assays described in FIGS. 8(A-B), (FIG. 8A) BxPC-3 and (FIG. 8B) CFPAC-1 cells were cultured in low (2%) serum alone or with a combination of IGF-1 (50 nM) and HRG (10 nM).

[3] = tested on: CFPAC-1 pancreatic cancer cells; assay: Total ErbB3 and total IGF-1R ELISA (Example 20); type: cell-based, human; details: 50 nM, relative to vehicle control
Protocol: CFPAC-1 pancreatic cancer cells were seeded at 65% confluence in 10% serum-containing medium and incubated in 96-well plates overnight. […] After treatment, cells were harvested and protein lysates generated. Changes in ErbB3 and IGF-1R levels across all treatments were evaluated by total ErbB3 or total IGF-1R ELISA, respectively.

[4] = tested on: BxPC-3 derived xenograft tumors; assay: BxPC-3 xenograft PD, western blot; type: in vivo, mice; details: MM-141 30 mpk i.p. Day 0, 3, 6 co-administered with gemcitabine 150 mpk
Text: For the PD studies described in FIGS. 6A-B and FIGS. 9 A-B, nu/nu female mice were inoculated with 8×10^6 DU145 or 5×10^6 BxPC-3 cells, respectively, in 1:1 Matrigel® suspension. […] Tumor lysates were generated and subjected to western blot analysis.

ovarian cancer cells = assay: Ovarian cancer cell western blot, AKT and ERK signaling; type: cell-based; details: MM-141 1 μM 1 hour, then IGF-1 50 nM or HRG 10 nM 10 minutes
Protocol: In FIGS. 18A-F, Peol, Peo4, Ov90, PEA1, PEA2 and OvCAR8 ovarian cancer cells were plated on 10 cm plates (1-3×10^6 cells per plate) in 10% serum-containing medium and incubated overnight. […] Following treatment, cells were harvested in lysis buffer containing protease and phosphatase inhibitors and analyzed by western blotting. Phosphorylated and total levels of IGF-1R, ErbB3, AKT and ERK were determined using target-specific antibodies.

[5] = tested on: patients with solid tumors; assay: Phase 1 dose escalation study, MM-141 monotherapy (Arm A): safety and disease response; type: in vivo, human
Text: Adverse events that were reported with a frequency>15% included: vomiting (7/15), nausea (6/15), fatigue (4/15), abdominal pain (4/15), increased AP (4/15), dyspnea (4/15), diarrhea (3/15), anemia (3/15), increased AST (3/15), and rash (3/15). […] The safety, tolerability, PK and PD profiles support weekly and biweekly MM-141 dosing.

[6] = tested on: panel of pancreatic cancer cell lines; assay: pAKT ELISA after HRG and IGF-1 stimulation; type: cell-based, human; details: MM-141 500 nM 24 hours, HRG and IGF-1 100 ng/mL 15 minutes, ten cell lines
Protocol: Ten pancreatic cancer cell lines (see Table 3 above) were seeded at 65% confluence in 10% serum-containing medium and incubated in 96-well plates overnight. […] Following incubation, cells were treated with a combination of HRG and IGF-1 ligands at 100 ng/mL or PBS (control) for 15 minutes. After treatment, cells were harvested and protein lysates generated. Changes in pAKT levels across all treatments and cell lines were evaluated by pAKT ELISA. Phosphorylated AKT signal from untreated control was subtracted from each treatment, and then pAKT levels post-treatment with HRG and IGF-1 were normalized to 1 for each cell line.

[7] = tested on: CFPAC-1 pancreatic cancer cells; assay: Receptor ubiquitination, immunoprecipitation and immunoblotting; type: cell-based, human; details: 500 nM MM-141 20 minutes after 2 hours 1 μM epoxomicin
Text: Cell lysates were immunoprecipitated (IP) with an IGF-1R (FIG. 33C) or ErbB3 (FIG. 33D) antibody, and then immunoblotted (IB) for IGF-1R, ErbB3, or ubiquitin protein (Ub) expression by western blotting.

[8] = tested on: platinum-sensitive (Peol, PEA1 and OvCAR5) and platinum-resistant (Peo4 and PEA2) ovarian cancer cells; assay: CTG cell viability, paclitaxel with IGF-1 or HRG, three-dimensional ovarian cultures; type: cell-based; details: paclitaxel 10-100 nM, IGF-1 or HRG 0-50 nM, MM-141 1 μM, 2% serum
Protocol: The cell viability assay (FIGS. 17A-B) was carried out using a CellTiter-Glo® (CTG) assay (Promega), which determines the number of viable cells in a culture based on quantitation of the ATP present. In FIGS. 17A-B, Peol, Peo4, PEA1, PEA2 and OvCAR5 cells were grown in 2% serum alone or with exogenous IGF-1 or HRG added (0-50 nM).

[9] = patients with event / 15 patients dosed, all dose levels

## MM-141: polyvalent bispecific antibody P4-G1-M1.3, anti-IGF-1R and anti-ErbB3; heavy chain SEQ ID NO: 3, light chain SEQ ID NO: 4
[1]; MM-141 30 mpk i.p. q3d added to the gemcitabine regimen on day 41
  tumor growth after development of resistance to gemcitabine: decreased tumor growth
[1]; MM-141 30 mpk i.p. q3d co-administered with gemcitabine 150 mpk i.p. q6d
  activity of gemcitabine in the combination arm: increased the activity of gemcitabine
[1]; MM-141 30 mpk i.p. q3d with gemcitabine 150 mpk i.p. q6d
  therapeutic synergy with gemcitabine: therapeutic synergy
[2]
  resistance to cytotoxic effect of gemcitabine and paclitaxel caused by combination of IGF-1 and HRG: resistance was reversed
[3]
  total ErbB3 protein level: potently down-regulates
  total IGF-1R protein level: potently down-regulates
[4]
  gemcitabine-induced receptor (IGF-1R, ErbB3) up-regulation: reversed the receptor up-regulation
Ovarian cancer cells
  IGF-1 and/or HRG induced upregulation in AKT and ERK survival signaling: could be abrogated
[5]; monotherapy 6, 12, 20 mg/kg q7d or 40 mg/kg q14d, 15 patients
  dose-limiting toxicities: No dose-limiting toxicities were observed; also recorded: No DLTs were observed
[5]; patients with Ewing's Sarcoma (1) and parotid gland carcinoma (1)
  disease stabilization: Disease stabilization was observed
[5]; [9]
  adverse events reported with a frequency>15%: abdominal pain: 4/15
  adverse events reported with a frequency>15%: anemia: 3/15
  adverse events reported with a frequency>15%: diarrhea: 3/15
  adverse events reported with a frequency>15%: dyspnea: 4/15
  adverse events reported with a frequency>15%: fatigue: 4/15
  adverse events reported with a frequency>15%: increased AP: 4/15
  adverse events reported with a frequency>15%: increased AST: 3/15
  adverse events reported with a frequency>15%: nausea: 6/15
  adverse events reported with a frequency>15%: rash: 3/15
  adverse events reported with a frequency>15%: vomiting: 7/15
[6]
  pAKT (AKT activation) induced by the combination of HRG and IGF-1: blocks AKT activation; also recorded: greatly reduced amount of pAKT
[7]
  IGF-1R and ErbB3 receptor ubiquitination: induction of ubiquitination; also recorded: enhanced receptor ubiquitination
[8]
  resistance to cytotoxic effect of paclitaxel caused by IGF-1 or heregulin: resistance was reversed
